The target in assay [1] is T1, linear diubiquitin (Boston Biochem) (human, UniProt P0CG48 1-152).
T1 construct: Bought product
The assay can be described thus: phage IC50 competition ELISA with soluble linear diubiquitin. The protocol:
(§1) An initial titer ELISA was done to determine the amount of phage at which a signal of OD₄₅₀=0.5 would be achieved. […] The coated plates were blocked with 200 μL/well of 2.5% milk in PBST for one hour at 25° C. with shaking. Twelve two-fold serial dilutions of the phage were made in 2.5% milk in PBST from OD₂₆₈=4.0 to OD₂₆₈=0.002. After one hour, the blocking buffer was dumped off of the plate and 100 μL/well of each phage dilution was added and incubated at 25° C. for 15 minutes with shaking. The plate was then washed six times with PBST using a plate washer. A 1:5000 dilution of an anti-M13 phage-HRP-conjugated secondary antibody (GE Healthcare) in PBST was used for detection of phage binding. 100 μL/well of the secondary dilution was added and the plate was incubated at 25° C. for 30 minutes with shaking. The plate was then washed 12 times with PBST using a plate washer and twice with PBS manually. Bound secondary antibody was detected using a TMB substrate (KPL) followed by quenching with an equal volume of 1 M phosphoric acid.

Assay [2] deals with T2, monoubiquitin (Boston Biochem) (human, UniProt P0CG48 1-76).
T2 construct: Bought product
Put plainly: phage specificity ELISA, 1 ug/mL coated antigen, anti-M13-HRP. A general note: ELISA stands for enzyme-linked immunosorbent assay.

The target in assay [3] is T3, K11-linked diubiquitin (Genentech) (human, UniProt P0CG48 1-76, isopeptide bond between the C-terminus of one ubiquitin and Lys11 of the other).
T3 construct: also called K11 diUb
Described as above.

Assay [4] has as its target T4, K48-linked diubiquitin (Boston Biochem) (human, UniProt P0CG48 1-76, isopeptide bond between the C-terminus of one ubiquitin and Lys48 of the other).
T4 construct: Bought product; also called K48 diUb
The assay is described as above.

The target in assay [5] is T1, linear diubiquitin (Boston Biochem). The assay can be described thus: phage IC50 competition ELISA: Fab-phage with titrated soluble linear diubiquitin, unbound phage caught on coated linear diubiquitin; clone 1D8. As to the method:
as §1

In assay [6] the target is T2, monoubiquitin (Boston Biochem). Put plainly: phage spot ELISA, 2 ug/mL coated antigen, anti-M13-HRP. As to the method:
(§2) Ninety-six individual clones from the second round of sorting of the VH library, 192 clones from the third round of sorting of the VH library, 96 clones from the fourth round of sorting of the VH library, and 192 clones from the fourth round of sorting of the common light chain library were screened. […] Individual clones were grown up in a 96-well format in 1 mL of 2YT broth containing 50 μg/mL carbenicillin and 1×10¹⁰ phage/mL M13K07 helper phage at 37° C. overnight with shaking. Cells were pelleted by spinning at 3000 rpm for ten minutes. […] All of the Fab libraries contain a carboxy-terminal gD tag on the light chain which allows for assessment of display level by anti-gD antibody binding. The panel of ubiquitin proteins was immobilized on 384-well Maxisorb immunoplates (NUNC). Plates were coated at 4° C. overnight with 2 μg/mL of each protein in 50 mM sodium carbonate buffer, pH 9.6. The coated plates were blocked with 60 μL/well of 2.5% milk in PBST for one hour at 25° C. with shaking. After one hour, the blocking buffer was dumped off of the plate and 20 μL/well of PBST and 10 μL/well of phage supernatant were added. Plates were incubated at 25° C. for one hour with shaking. The plate was then washed six times with PBST by manually filling the wells and dumping off the wash buffer. A 1:5,000 dilution of an anti-M13 horseradish peroxidase (HRP)-conjugated secondary antibody (GE Healthcare) in PBST was used for detection of phage binding. 30 μL/well of the secondary dilution was added and the plate was incubated at 25° C. for 30 minutes with shaking. The plate was then washed six times with PBST and twice with PBS, both manually. Bound secondary antibody was detected using a TMB substrate (KPL) followed by quenching with an equal volume of 1 M phosphoric acid. The absorbance was read at 450 nm.

Assay [7] concerns the target T3, K11-linked diubiquitin (Genentech). The description is as above. The protocol:
as §2

The target of assay [8] is T5, K63-linked polyubiquitin 2-7 (Boston Biochem) (human, UniProt P0CG48 1-76, isopeptide bonds between the C-terminus of one ubiquitin and Lys63 of the next).
T5 construct: also called K63-linked chains
Described as above. As to the method: as §2

The target in assay [9] is T6, K48-linked polyubiquitin 2-7 (Boston Biochem) (human, UniProt P0CG48 1-76, isopeptide bonds between the C-terminus of one ubiquitin and Lys48 of the next).
T6 construct: also called K48-linked chains
The assay is described as above. The protocol: as §2

The target in assay [10] is T1, linear diubiquitin (Boston Biochem). The assay can be described thus: phage IC50 competition ELISA: Fab-phage with titrated soluble linear diubiquitin, unbound phage caught on coated linear diubiquitin; clone 1E3. The protocol:
as §1

Assay [11] has the same target. Put plainly: phage IC50 competition ELISA with soluble linear diubiquitin. The source holds these as a separate data set.

The values below come from patent publication US20130058955A1 (Genentech, published 2013).

Several values for one entry are separate records, joined by “and”; a condition that tells them apart may be missing. Equal entries are not always repeated.

B1: 1F11/3F5 double mutant, Fab displayed on phage (Fab, V domains shown)
VH: EVQLVESGGGLVQPGGSLRLSCAASGFTFSNTYISWVRQAPGKGLEWVASITPSSGQTDYADSVKGRFTISADTSKNTAYLQMNSLRAEDTAVYYCARTWLLRWVMDYWGQGTLVTVSS
VL: DIQMTQSPSSLSASVGDRVTITCRASQDVSTAVAWYQQKPGKAPKLLIYSAKFLYSGVPSRFSGSGSGTDFTLTISSLQPEDFATYYCQQSYTTPPTFGQGTKVEIK
notes: S52K (L2) and S56Q (H2)
Usually IC50 stands for the point on the concentration scale where inhibition reaches its midpoint. In turn, B1 had a concentration for half-maximal inhibition (IC50) in [1] of 5 nM. Also, the binding result in assay [2], in assay [3] and in assay [4] was “no binding (tested: phage OD268 1)” each time.

B2: 1D8, Fab displayed on phage (Fab, V domains shown)
VH: EVQLVESGGGLVQPGGSLRLSCAASGFTFTDYDIHWVRQAPGKGLEWVAGISPYGGYTDYADSVKGRFTISADTSKNTAYLQMNSLRAEDTAVYYCAREAGSRLLSVMDYWGQGTLVTVSS
VL: DIQMTQSPSSLSASVGDRVTITCRASQDVSTAVAWYQQKPGKAPKLLIYSASFLYSGVPSRFSGSGSGTDFTLTISSLQPEDFATYYCQQSYTTPPTFGQGTKVEIK
notes: Fab on M13 phage (heavy chain fused to gpIII, gD tag on light chain); Fab-zip (bivalent) in the first spot ELISA, monovalent afterwards; also called parental wild-type 1D8
B2: the IC50 in [5] is about 5000 nM.

B3: 1A10, Fab displayed on phage (Fab, V domains shown)
VH: EVQLVESGGGLVQPGGSLRLSCAASGFNIYYSSIHWVRQAPGKGLEWVASIYPYYGYTSYADSVKGRFTISADTSKNTAYLQMNSLRAEDTAVYYCARGYSWYYGSPAFDYWGQGTLVTVSS
VL: DIQMTQSPSSLSASVGDRVTITCRASQSVSSAVAWYQQKPGKAPKLLIYSASSLYSGVPSRFSGSRSGTDFTLTISSLQPEDFATYYCQQHYTTPPTFGQGTKVEIK
notes: Fab on M13 phage
In the case of B3, the binding result in assay [6], in assay [7], in assay [8] and in [9] was “no binding” each time.

B4: 1E3, Fab displayed on phage (Fab, V domains shown)
VH: EVQLVESGGGLVQPGGSLRLSCAASGFTFSNTYISWVRQAPGKGLEWVASITPSSGSTDYADSVKGRFTISADTSKNTAYLQMNSLRAEDTAVYYCARTWLLRWVMDYWGQGTLVTVSS
VL: DIQMTQSPSSLSASVGDRVTITCRASQDVSTAVAWYQQKPGKAPKLLIYSASFLYSGVPSRFSGSGSGTDFTLTISSLQPEDFATYYCQQSYTTPPTFGQGTKVEIK
notes: Fab on M13 phage (heavy chain fused to gpIII, gD tag on light chain); Fab-zip (bivalent) in the first spot ELISA, monovalent afterwards; also called WT; parental 1E3
For the molecule B4, the IC50 in assay [1] is 29 nM and 24 nM and 25 nM; in assay [10] it was 80 nM.

B5: 1D8.4F5, Fab displayed on phage (Fab, V domains shown)
VH: EVQLVESGGGLVQPGGSLRLSCAASGFTFTDDDIHWVRQAPGKGLEWVAEISPYGGYTDYADSVKGRFTISADTSKNTAYLQMNSLRAEDTAVYYCAREAGSRLLSVMDYWGQGTLVTVSS
VL: DIQMTQSPSSLSASVGDRVTITCRASQDVSTAVAWYQQKPGKAPKLLIYSASFLYSGVPSRFSGSGSGTDFTLTISSLQPEDFATYYCQQSFTTPPTFGQGTKVEIK
notes: Fab on M13 phage
Turning to B5, the IC50 in assay [11] is about 2000 nM.
